The values below are quoted from earlier work in article PMC6121496.

Values joined by “and” are separate entries in the source; they are usually repeats but may differ in a detail not shown here. Equal entries are not always repeated. Where two headings read alike, the source gives them in different places.

In data set [1] the target is KPC-2 beta-lactamase (Klebsiella pneumoniae) (UniProt Q9F663).
The target of data set [2] is TEM-1 beta-lactamase (Escherichia coli) (UniProt P62593).
The target is the same in data set [3]. The source holds these as a separate data set.
For data set [4] the target is unchanged. This is another data set of the same source.
Data set [5] shares this target. This is another data set of the same source.
For data set [6] the target is unchanged. The source holds these as a separate data set.
The target is the same in data set [7]. Put plainly: SPR.
Data set [8] shares this target. Description: SPR. This is another data set of the same source.
The target of data set [9] is CTX-M14 beta-lactamase (Escherichia coli). Description: enzyme inhibition.
In data set [10] the target is KPC-3 beta-lactamase (Klebsiella pneumoniae) (UniProt Q9F663). Put plainly: enzyme inhibition.
Data set [11] concerns the target PC1 beta-lactamase (Staphylococcus aureus) (UniProt P00807). Put plainly: enzyme inhibition.
Sequence of UniProt P00807 (P00807 25-281): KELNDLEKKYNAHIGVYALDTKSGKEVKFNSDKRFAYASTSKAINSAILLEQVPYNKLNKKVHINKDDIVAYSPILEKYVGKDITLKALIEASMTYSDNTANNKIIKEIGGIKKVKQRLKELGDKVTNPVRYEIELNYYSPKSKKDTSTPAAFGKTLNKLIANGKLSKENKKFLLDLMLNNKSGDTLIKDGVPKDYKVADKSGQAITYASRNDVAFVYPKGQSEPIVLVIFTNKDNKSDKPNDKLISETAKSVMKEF
Data set [12] concerns the target SHV-1 beta-lactamase (Klebsiella pneumoniae) (UniProt P0AD64). Put plainly: enzyme inhibition.
Sequence of UniProt P0AD64 (P0AD64 22-286): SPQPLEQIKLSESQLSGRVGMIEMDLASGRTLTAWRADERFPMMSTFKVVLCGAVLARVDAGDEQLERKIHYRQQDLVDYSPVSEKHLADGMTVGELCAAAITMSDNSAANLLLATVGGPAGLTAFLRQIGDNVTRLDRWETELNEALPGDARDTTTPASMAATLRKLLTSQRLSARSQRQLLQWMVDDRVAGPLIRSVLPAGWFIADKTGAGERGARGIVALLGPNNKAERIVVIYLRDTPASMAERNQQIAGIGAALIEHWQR
For data set [13], the target named is SME-1 beta-lactamase (Serratia marcescens) (UniProt P52682). Description: enzyme inhibition.
Sequence of UniProt P52682 (P52682 28-294): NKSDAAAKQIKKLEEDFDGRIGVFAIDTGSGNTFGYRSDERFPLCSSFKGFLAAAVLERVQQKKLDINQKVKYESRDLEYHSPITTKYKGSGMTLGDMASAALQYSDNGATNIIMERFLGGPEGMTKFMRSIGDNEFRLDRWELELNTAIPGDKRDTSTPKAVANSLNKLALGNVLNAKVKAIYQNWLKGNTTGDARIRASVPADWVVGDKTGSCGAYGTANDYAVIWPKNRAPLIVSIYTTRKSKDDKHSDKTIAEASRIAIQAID
Data set [14] has as its target PC1 beta-lactamase (Staphylococcus aureus) (UniProt P00807). Description: stopped flow fluorometry, ITC.
Data set [15] concerns the target TEM-1 beta-lactamase (Escherichia coli) (UniProt P62593). The source holds these as a separate data set.
Data set [16] has the same target. This is another data set of the same source.

Sequence of UniProt P62593 (P62593 24-286): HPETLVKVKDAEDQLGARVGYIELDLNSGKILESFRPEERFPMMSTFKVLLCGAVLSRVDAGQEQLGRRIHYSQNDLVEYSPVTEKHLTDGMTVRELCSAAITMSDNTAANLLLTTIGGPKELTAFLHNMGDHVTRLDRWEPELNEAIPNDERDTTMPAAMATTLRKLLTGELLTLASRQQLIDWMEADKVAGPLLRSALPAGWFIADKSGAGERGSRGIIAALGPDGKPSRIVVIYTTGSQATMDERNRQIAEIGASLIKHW

The term Ki denotes the equilibrium dissociation constant of an inhibitor or competing ligand from its target. As a reminder, the Kd is the constant that tells how readily two partners part at equilibrium. BLIP (from UniProt P35804): the inhibitory constant (Ki) was 1.2 nM in data set [1]; 0.4 nM in data set [2]; 0.5 nM in data set [4]; 810 nM in data set [9]; 0.25 nM in [10]; 350 nM in data set [11]. Besides, the Ki in [12] is 1100 nM and 1130 nM; in [13] it was 2.4 nM. In addition, the dissociation constant (Kd) in [3] was 1.3 nM and 1.7 nM; in [5], 0.3 nM; in [6] it was 0.4 nM; in [7], 1.25 nM; in [8] it was 15 nM; in [12], 1250 nM. Further, in data set [14], the Kd is 380 nM.
Regarding “BLIP peptide 30-49 (from UniProt P35804)”, the Ki in data set [15] was 352000 nM.
As for BLIP peptide (from UniProt P35804), in [16], the inhibitory constant (Ki) is 58000 nM.
